B1: CPEB3 Ribozyme (parent)
chain: GGGGGCCACAGCAGAAGCGUUCACGUCGCGGCCCCUGUCAGAUUCUGGUGAAUCUGCGAAUUCUGCUGU

Variants of: B1
Test: self-cleavage, relative activity (ratio to wild type); higher = more cleavage; co-transcriptional

Point of comparison: C29U C54U, self-cleavage 0.448. Against it:
- G30A A52U — higher, 0.806
- G30C C45U — higher, 0.603
- G30C C45A — higher, 0.51
- G30U C32A — lower, 0.175
- G30U C39G — lower, 0.29
- G30U C39A — lower, 0.273
- G30U C39U — lower, 0.252
- G30A U62C — higher, 0.497
- C29U U44C — lower, 0.311
- C29U U44G — lower, 0.3
- G30U C34G — lower, 0.193
- G30U C34U — lower, 0.323
- C29U A52C — lower, 0.417
- C29U A52G — higher, 0.529
- C29U A52U — lower, 0.396
- G30A G41C — lower, 0.215
- G30A G41A — lower, 0.382
- G30U C63G — lower, 0.261
- G30U C63A — lower, 0.181
- G30U G41U — lower, 0.229
- G30U G41A — lower, 0.216
- C29G G58U — higher, 0.558
- C29G G58C — lower, 0.416
- G30C C34A — lower, 0.243
- G30C C34U — higher, 0.6
- C29U G56A — lower, 0.244
- C29U G56U — lower, 0.198
- C29U A51G — higher, 0.537
- G30U G48A — higher, 0.455
- G30U G48C — lower, 0.416
- G30U G48U — lower, 0.393
- C29G G68C — higher, 0.715
- C29G G68A — higher, 0.845
- G30U U46A — lower, 0.44
- G30U U46C — lower, 0.39
- C29U G30U — lower, 0.169
- C29U G30C — lower, 0.232
- G30C C32A — lower, 0.194
- C29U U36A — lower, 0.132
- G30U G58C — lower, 0.302
- G30U G58A — lower, 0.284
- G30U G58U — lower, 0.439
- G30U A59C — lower, 0.172
- G30U A59U — lower, 0.222
- G30U A59G — lower, 0.309
- G30C C54G — lower, 0.296
- G30C C54U — higher, 0.673
- G30U C45G — lower, 0.354
- C29U A59C — lower, 0.237
- C29U A59G — higher, 0.58
- C29U G50U — higher, 0.517
- C29U G50C — lower, 0.321
- C29U G50A — higher, 0.524
- G30A G56A — higher, 0.713
- G30A G56U — higher, 0.693
- G30A G56C — lower, 0.413
- G30U U36A — lower, 0.198
- G30U U36C — lower, 0.179
- G30U U36G — lower, 0.175
- C29G U69A — higher, 0.757
- C29G U69C — higher, 0.892
- G30A G48U — higher, 0.868
- G30A G48C — higher, 0.901
- C29U C54G — lower, 0.219
- G30U A42U — lower, 0.247
- G30U A42C — lower, 0.282
- G30U C57U — lower, 0.207
- G30U C57A — lower, 0.235
- G30A U67G — higher, 0.948
- G30A U67A — higher, 0.901
- G30C U43G — lower, 0.369
- G30C U43C — higher, 0.587
- G30U U44A — lower, 0.248
- G30U U44C — lower, 0.364
- G30U U44G — lower, 0.308
- C29U U43C — lower, 0.301
- G30U C35A — lower, 0.191
- G30U C35G — lower, 0.213
- C29U U49C — lower, 0.411
- C29U U49A — higher, 0.542
- C29U U49G — higher, 0.514
- G30A G65C — lower, 0.353
- G30A G65A — higher, 0.627
- G30A U61A — lower, 0.418
- G30A A51U — higher, 0.752
- G30A A51G — higher, 0.744
- G30A C63A — lower, 0.413
- G30A G68A — higher, 0.988
- G30C A40C — lower, 0.197
- G30C A40G — higher, 0.462
- G30U A52G — lower, 0.287
- G30U A52C — lower, 0.395
- C29U G31U — lower, 0.221
- C29U G31A — lower, 0.315
- G30C U62G — lower, 0.343
- G30C U62A — lower, 0.259
- G30A U36A — lower, 0.196
- G30C U67A — higher, 0.869
- C29U C34U — higher, 0.495
- C29U C34A — lower, 0.299
- C29U C34G — lower, 0.276
- C29U C45U — higher, 0.505
- C29U C45A — lower, 0.307
- C29U C45G — lower, 0.404
- G30U G37A — lower, 0.159
- G30U G37C — lower, 0.186
- G30U G47U — lower, 0.417
- C29U U55A — lower, 0.173
- C29U U55G — lower, 0.167
- C29U U55C — lower, 0.199
- G30A C32G — lower, 0.261
- G30A C32A — lower, 0.245
- G30A C32U — higher, 0.714
- G30A G50C — higher, 0.774
- G30A G50A — higher, 0.927
- G30C G56A — higher, 0.464
- G30U C66A — lower, 0.278
- G30U C66G — lower, 0.216
- G30U C66U — lower, 0.331
- C29U C39A — lower, 0.16
- C29U C39U — lower, 0.193
- G30A C33U — higher, 0.691
- G30A C33A — lower, 0.203
- G30C G58C — higher, 0.494
- G30C G58U — higher, 0.579
- G30C G58A — lower, 0.359
- C29U G68A — higher, 0.586
- C29U G68U — higher, 0.515
- G30A C57U — lower, 0.272
- C29G U55C — lower, 0.253
- C29G U55G — lower, 0.171
- C29G U55A — lower, 0.267
- C29U G58U — higher, 0.641
- C29U G58A — lower, 0.372
- G30C A60G — lower, 0.411
- G30C A60C — lower, 0.285
- G30C A60U — lower, 0.242
- G30A U55C — higher, 0.519
- G30A U55G — higher, 0.453
- G30A U38C — higher, 0.531
- G30A U38G — lower, 0.274
- G30A A60C — lower, 0.261
- G30A C34U — higher, 0.741
- G30U U38C — lower, 0.253
- G30U U38A — lower, 0.201
- G30U U38G — lower, 0.153
- G30C U38C — lower, 0.379
- G30C U38A — lower, 0.314
- G30C U38G — lower, 0.204
- G30U A60U — lower, 0.213
- G30U A60C — lower, 0.173
- G30C A51G — higher, 0.628
- G30C A51C — higher, 0.614
- G30U G56A — lower, 0.218
- G30U G56C — lower, 0.196
- C29U U64C — lower, 0.371
- G30A — higher, 0.913
- G30U — lower, 0.411
- G30C — higher, 0.682
- G30U G68C — higher, 0.825
- G30A C45G — higher, 0.73
- G30A C45U — higher, 0.884
- C29G U62A — lower, 0.254
- C29G U62G — lower, 0.206
- C29G U62C — lower, 0.251
- C29G G47U — higher, 0.612
